The results in this text go back to article PMC12403569, “The regulatory network of Coprinopsis cinerea transcription factor Skn7 collaborates with bHLH1 during fungal-fungal interactions”.

For one data set, the target named is T1, Skn7 DBD (Coprinopsis cinerea, UniProt A8PG35 214-443).
T1 sequence: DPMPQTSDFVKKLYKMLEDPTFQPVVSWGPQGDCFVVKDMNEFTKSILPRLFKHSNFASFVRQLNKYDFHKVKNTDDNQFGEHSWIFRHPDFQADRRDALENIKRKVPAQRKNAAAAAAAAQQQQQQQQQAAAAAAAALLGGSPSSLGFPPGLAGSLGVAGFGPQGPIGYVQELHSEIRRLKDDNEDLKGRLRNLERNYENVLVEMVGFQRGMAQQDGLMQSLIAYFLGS
Put plainly: EMSA; poly d(I-C); 25 mM HEPES, 4 mM DTT, 100 mM KCl, 2 mM MgCl2, 10% glycerol, 0.01 mg/mL BSA, pH 7.3; 200 ng probe, 200 ng poly d(I-C), 20 µL; temperature not stated. The note with it: protein: recombinant; tags: His-SUMO, removed with Ulp1; label: 5'-6-carboxyfluorescein.

Another data set deals with T2, truncated bHLH1 (Coprinopsis cinerea, UniProt A8P5K0 311-490).
T2 sequence: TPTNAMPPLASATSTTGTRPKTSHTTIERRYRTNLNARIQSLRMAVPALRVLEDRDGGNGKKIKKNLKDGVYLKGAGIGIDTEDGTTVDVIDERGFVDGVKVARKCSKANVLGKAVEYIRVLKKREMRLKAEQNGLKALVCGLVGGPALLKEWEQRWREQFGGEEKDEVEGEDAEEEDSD
Put plainly: EMSA; 25 mM HEPES, 4 mM DTT, 100 mM KCl, 2 mM MgCl2, 10% glycerol, 0.01 mg/mL BSA, pH 7.3; 200 ng probe, 200 ng poly d(I-C), 20 µL; temperature not stated. To be noted: protein: recombinant; tags: His; chain copies: 2.

B1: gst promoter probe (dsDNA)
DNA 1: GATGTGTCGACGTCTGA
DNA 2: TCAGACGTCGACACATC
On to B1, for which, in the data set with Skn7 DBD, the binding result is given as “binds”.

B2: easA promoter probe (dsDNA)
DNA 1: TGGTGGACAAGTTTCCGT
DNA 2: ACGGAAACTTGTCCACCA
Take B2: in the data set with Skn7 DBD, the binding result is “binds”.

B3: lcc9 promoter probe (dsDNA)
DNA 1: CATTCTGTCTAGAAT
DNA 2: ATTCTAGACAGAATG
For B3, in the data set with Skn7 DBD, the binding result is reported as “binds”.

B4: sod2 promoter probe (dsDNA)
DNA 1: AGAAGGATCTAGAGACTCGG
DNA 2: CCGAGTCTCTAGATCCTTCT
B4: the binding result with Skn7 DBD is “binds”.

B5: lcc9 promoter probe for bHLH1 (dsDNA)
DNA 1: ATTCATTCTGTCTAGAATGGG
DNA 2: CCCATTCTAGACAGAATGAAT
Regarding B5, in the data set with truncated bHLH1, the binding result is “binds”.

B6: nrps promoter probe (dsDNA)
DNA 1: TAACCATGTCCAACTCTAAT
DNA 2: ATTAGAGTTGGACATGGTTA
Consider B6, for which the binding result with Skn7 DBD was “binds”.
